Assay [1] deals with T1, human EGFR on cells (human, UniProt P00533 25-1210).
T1 construct: whole, on cells; One molecule is used for both endogenous EGFR on human tumour cell lines and EGFR overexpressed on Ba/F3 cells; also called hEGFR; EGFR+ cells (PEO1, A375, 22RV1, CAPAN2, SW1990, H292, CASKI)
In words: flow cytometry titration on CASKI cells. In general terms: Flow cytometry measures light scatter and fluorescence of single cells or particles in a stream.

The target in assay [2] is T2, hEGFR(ECD).CPGG.MMH6 (REGN355) (human, UniProt P00533 25-647).
T2 construct: Soluble extracellular domain with a myc-myc-hexahistidine tag; also called hEGFR.mmH; hEGFR.mmh
In words: SPR (Biacore 4000) at 25 C; antibody captured on anti-human Fc, hEGFR.mmH injected. A general note: In SPR one partner is held on a chip, and binding of the other changes the refractive index at the surface.
Method: Association was monitored for 5 minutes, and the dissociation of hEGFR.mmH in HBS-EP running buffer was monitored for 10 minutes. All of the binding kinetics experiments were performed at 25° C. Kinetic association (kₐ) and dissociation (kd) rate constants were determined by fitting the real-time sensorgrams to a 1:1 binding model using Scrubber 2.0c curve fitting software.

For the next assay, the target named is human CD28 on cells (human, UniProt P10747 19-220). In words: cell-based or functional assay.
Assay [3] deals with T1, human EGFR on cells. Kind of assay: flow cytometry titration on A375 cells.
Method: (§1) After incubation, the cells were washed twice with cold PBS containing 1% filtered FBS and a Fluorophore-conjugated anti-human secondary antibody was added to the cells and incubated for an additional 30 minutes. Live/dead dye was added to Human and Cynomolgus T cells incubations. Wells containing no antibody or secondary only were used as a control.
(§2) After incubation with EGFR expressing cells, cells were washed, re-suspended in 200 μL cold PBS containing 1% filtered FBS and analyzed by flow cytometry on a BD FACS Canto II.
Assay [4] concerns the target T1, human EGFR on cells. Kind of assay: flow cytometry titration on PEO1 cells.
Method: as §1, §2
Assay [5] concerns the target T1, human EGFR on cells. In words: cell-based or functional assay.
Another assay deals with T3, hCD28.mFc (REGN2012) (human, UniProt P10747 19-152, limits assumed).
T3 construct: also called Human CD28-mFc; hCD28 with a C-terminal mouse Fc tag; not shown: C-terminal mouse Fc tag
Kind of assay: SPR (Biacore T-200) at 25 C; hCD28.mFc captured on anti-mouse Fc, antibody injected.

The target of assay [6] is T1, human EGFR on cells. In words: flow cytometry titration on 22RV1 cells.
Method: as §1, §2
Assay [7] concerns the target T1, human EGFR on cells. Kind of assay: flow cytometry titration on SW1990 cells (EGFR-expressing).
Method: (§3) Flow cytometric analysis was utilized to determine binding of anti-EGFR X anti-CD28 bispecific antibodies to several cancer cell lines (A375, 22RV1, PEO1, CAPAN2, SWi1990, H292), Human and Cynomolgus T cells and Jurkat cells followed by detection with a labeled anti-human secondary IgG antibody. […] After incubation, the cells were washed twice with cold PBS containing 1% filtered FBS and a Fluorophore-conjugated anti-human secondary antibody was added to the cells and incubated for an additional 30 minutes. Live/dead dye was added to Human and Cynomolgus T cells incubations. Wells containing no antibody or secondary only were used as a control.
For assay [8], the target named is T1, human EGFR on cells. Kind of assay: flow cytometry titration on PEO1 cells (EGFR-expressing).
Method: as §3
Assay [9] addresses T1, human EGFR on cells. Kind of assay: flow cytometry titration on CAPAN2 cells (EGFR-expressing).
Method: as §3
The target of assay [10] is T1, human EGFR on cells. Kind of assay: flow cytometry titration on CASKI cells; CASKI cells.
Assay [11] deals with T1, human EGFR on cells. Kind of assay: flow cytometry titration on A375 cells (EGFR-expressing).
Method: as §3
For assay [12], the target named is T1, human EGFR on cells. Kind of assay: flow cytometry titration on H292 cells (EGFR-expressing).
Method: as §3
Assay [13] addresses T1, human EGFR on cells. In words: flow cytometry titration on 22RV1 cells (EGFR-expressing).
Method: as §3

For orientation: EC50 means the midpoint of the concentration-response curve. A higher EC50 goes with a need for much substance. A word on the Kd: it is the concentration at which binding is half-saturated. A higher Kd goes with weaker binding. By koff is commonly meant the first-order rate constant of dissociation. A word on the kon: it is the rate constant with which the complex forms. The low end stands for slower complex formation, the high end for faster complex formation. As usually defined, the t½ is the time in which the quantity being followed falls by half.

Method for hCD28.mFc (REGN2012): Equilibrium dissociation constants (KD values) for purified bispecific Abs binding to captured hCD28.mFc (REGN2012) were determined using a real-time surface plasmon resonance biosensor using a Biacore T-200 instrument. The CM5 Biacore sensor surface was derivatized by amine coupling with a polyclonal rabbit anti-moue Fc antibody (GE Healthcare, Cat #BR100838) to capture purified hCD28 with a C-terminal mouse Fc tag (hCD28.mFc, REGN2012). […] Association was monitored for 4 minutes, and the dissociation of bispecific Abs in HBS-EP was monitored for 10 minutes. All of the binding kinetics experiments were performed at 25° C. Kinetic association (kₐ) and dissociation (kd) rate constants were determined by fitting the real-time sensorgrams to a 1:1 binding model using Scrubber 2.0c curve fitting software. Binding dissociation equilibrium constants (KD) and dissociative half-lives (t½) were calculated from the kinetic rate constants as:

B1: REGN6322 (bispecific antibody, human IgG4 S228P, kappa)
heavy 1: EVQLVESGGGLVKPGGSLRLSCTASGFSFRDAWMTWVRQVPGKGLEWVGRIRNKIDGGTTDYNTPVKDRFTISRDDSKNTLYLQMNSLKTEDTAVYYCTTDIWNYVLFYYYGLDVWGQGTTVTVSSASTKGPSVFPLAPCSRSTSESTAALGCLVKDYFPEPVTVSWNSGALTSGVHTFPAVLQSSGLYSLSSVVTVPSSSLGTKTYTCNVDHKPSNTKVDKRVESKYGPPCPPCPAPPVAGPSVFLFPPKPKDTLMISRTPEVTCVVVDVSQEDPEVQFNWYVDGVEVHNAKTKPREEQFNSTYRVVSVLTVLHQDWLNGKEYKCKVSNKGLPSSIEKTISKAKGQPREPQVYTLPPSQEEMTKNQVSLTCLVKGFYPSDIAVEWESNGQPENNYKTTPPVLDSDGSFFLYSRLTVDKSRWQEGNVFSCSVMHEALHNHYTQKSLSLSLGK
heavy 2: QVQLQESGPGLVKPSETLSLTCTVSGGSISSYYWSWIRQPPGKGLEWIGYIYYSGITHYNPSLKSRVTISVDTSKIQFSLKLSSVTAADTAVYYCARWGVRRDYYYYGMDVWGQGTTVTVSSASTKGPSVFPLAPCSRSTSESTAALGCLVKDYFPEPVTVSWNSGALTSGVHTFPAVLQSSGLYSLSSVVTVPSSSLGTKTYTCNVDHKPSNTKVDKRVESKYGPPCPPCPAPPVAGPSVFLFPPKPKDTLMISRTPEVTCVVVDVSQEDPEVQFNWYVDGVEVHNAKTKPREEQFNSTYRVVSVLTVLHQDWLNGKEYKCKVSNKGLPSSIEKTISKAKGQPREPQVYTLPPSQEEMTKNQVSLTCLVKGFYPSDIAVEWESNGQPENNYKTTPPVLDSDGSFFLYSRLTVDKSRWQEGNVFSCSVMHEALHNRFTQKSLSLSPGK
light: not shown
notes: EGFR arm from mAb35193P2, CD28 arm from mAb14226; also called bsAb6322; EGFRxCD28
Take B1: the response in the assay with human EGFR on cells [1] was half-maximal at 24.4 nM (EC50). Further, in [2], the Kd is 9.38 nM, the koff came out at 0.00146 s⁻¹, the kon was 156000 M⁻¹ s⁻¹ and the “t½” value worked out at 7.9 min. In the assay with human CD28 on cells, the “IL-2 Release MAX (pg/mL), human CD3+ T cells + NCI-H292 cells, with 20 nM IsoC-1” value is 8.02 pg/mL; the “IL-2 Release MAX (pg/mL), human CD3+ T cells + NCI-H292 cells, with 20 nM cemiplimab” value is 21.8 pg/mL; the “Proliferation MAX (CPM), human CD3+ T cells + NCI-H292 cells, with 20 nM IsoC-1” value was determined as 1860 CPM; the “Proliferation MAX (CPM), human CD3+ T cells + NCI-H292 cells, with 20 nM cemiplimab” value came to 2380 CPM. In the assay with human EGFR on cells [3], this molecule gave an EC50 of 4.64 nM. The response in the assay with human EGFR on cells [4] was half-maximal at 5.77 nM (EC50). Moreover, the “EC50 [M] of increase of BaF3/hEGFR proliferation in presence of 0.5 nM hTGFβ” value with human EGFR on cells [5] was found to be 3.67e-09 M. Moreover, in the assay with hCD28.mFc (REGN2012), the Kd was 10.3 nM, the koff was 0.00268 s⁻¹, the kon came to 261000 M⁻¹ s⁻¹ and the “t½” value was 4.3 min. In addition, in the assay with human EGFR on cells [6], the EC50 worked out at 9.58 nM.

B2: REGN6323 (bispecific antibody, human IgG4 S228P, kappa)
heavy 1: QVQLQESGPGLVKPSETLSLTCTVSDDSIISYYWSWIRQPPGKGLEWIGYIYYSGRTNYNPSLKSRVTISVDTSKNQVSLKLNSVIAADTAVYYCARVSEDSYYHYGMDVWGQGTTVTVSSASTKGPSVFPLAPCSRSTSESTAALGCLVKDYFPEPVTVSWNSGALTSGVHTFPAVLQSSGLYSLSSVVTVPSSSLGTKTYTCNVDHKPSNTKVDKRVESKYGPPCPPCPAPPVAGPSVFLFPPKPKDTLMISRTPEVTCVVVDVSQEDPEVQFNWYVDGVEVHNAKTKPREEQFNSTYRVVSVLTVLHQDWLNGKEYKCKVSNKGLPSSIEKTISKAKGQPREPQVYTLPPSQEEMTKNQVSLTCLVKGFYPSDIAVEWESNGQPENNYKTTPPVLDSDGSFFLYSRLTVDKSRWQEGNVFSCSVMHEALHNHYTQKSLSLSLGK
heavy 2: B1 heavy 2
light: not shown
notes: EGFR arm from mAb13006P2, CD28 arm from mAb14226; also called bsAb6323; EGFRxCD28
Turning to B2, the Kd in assay [2] was determined as 3.75 nM; in the assay with hCD28.mFc (REGN2012), 10 nM. In addition, the figures for the koff (in assay [2]; in the assay with hCD28.mFc (REGN2012)) were 0.000774 s⁻¹ and 0.00265 s⁻¹, respectively. For the same molecule, the results for the kon (in assay [2]; with hCD28.mFc (REGN2012)) were 206000 M⁻¹ s⁻¹ and 265000 M⁻¹ s⁻¹, respectively. The “t½” value in [2] came out at 14.9 min; in the assay with hCD28.mFc (REGN2012), 4.4 min. Besides, the “IL-2 Release MAX (pg/mL), human CD3+ T cells + NCI-H292 cells, with 20 nM IsoC-1” value in the assay with human CD28 on cells came out at 13.2 pg/mL. Also, in the assay with human CD28 on cells, the “IL-2 Release MAX (pg/mL), human CD3+ T cells + NCI-H292 cells, with 20 nM cemiplimab” value was found to be 36.7 pg/mL. The “Proliferation EC50 [M], human CD3+ T cells + NCI-H292 cells, with 20 nM IsoC-1” value in the assay with human CD28 on cells came to 2.29e-11 M. In the assay with human CD28 on cells, the “Proliferation EC50 [M], human CD3+ T cells + NCI-H292 cells, with 20 nM cemiplimab” value worked out at 3.13e-11 M. Further, in the assay with human CD28 on cells, the “Proliferation MAX (CPM), human CD3+ T cells + NCI-H292 cells, with 20 nM IsoC-1” value is 1660 CPM. The “Proliferation MAX (CPM), human CD3+ T cells + NCI-H292 cells, with 20 nM cemiplimab” value with human CD28 on cells amounted to 2340 CPM. The EC50 with human EGFR on cells [7] was 2.96 nM; in the assay with human EGFR on cells [8], 0.667 nM; in the assay with human EGFR on cells [3], 0.874 nM; with human EGFR on cells [9], 1.29 nM; with human EGFR on cells [4], 5.86 nM; in the assay with human EGFR on cells [10], 2.35 nM. Further, the half-maximal effective concentration (EC50) in the assay with human EGFR on cells [11] came out at 1.48 nM; with human EGFR on cells [12], 0.674 nM; in the assay with human EGFR on cells [13] it was 0.554 nM; in the assay with human EGFR on cells [6], 11.9 nM. Besides, the “Inhibition [%] of BaF3/hEGFR proliferation in presence of 0.5 nM hEGF” value with human EGFR on cells [5] worked out at 28.5%. For the same molecule, the “Inhibition [%] of BaF3/hEGFR proliferation in presence of 0.5 nM hTGFβ” value with human EGFR on cells [5] was -7.3%.

Source of the values: patent publication US20230322927A1 (Regeneron, published 2023).
